The test system of data set [1] is trypsin. Briefly: 2DPC hydrogel aptasensor (Debye ring). The conditions noted are these: DNA-H1-960, 500 uM protein; same limit as blank; 5'-NH2-(CH2)6 and 3'-(CH2)6-NH2; amide-linked to hydrogel carboxyl groups; 10 mM phosphate-buffered saline, pH 7.40 (one test at pH 5.00), 1 h immersion; temperature of the binding assay not stated.
Data set [2] concerns hemoglobin. Briefly: 2DPC hydrogel aptasensor (Debye ring). The conditions noted are these: DNA-H1-960, 500 uM protein; same limit as blank; 5'-NH2-(CH2)6 and 3'-(CH2)6-NH2; amide-linked to hydrogel carboxyl groups; 10 mM phosphate-buffered saline, pH 7.40 (one test at pH 5.00), 1 h immersion; temperature of the binding assay not stated.

On to “ATCTACGAATTCATCAGGGCTAAAGAGTGCAGAGTTACTTAG [lysozyme-binding aptamer]”, for which the binding signal (nm particle spacing decrease) in data set [1] and in data set [2] was below 12.7 each time.
